Patent US20140154265
Substitutions are numbered along the chain they refer to. Names may count otherwise.

B1: EAV nsp2-3 polyprotein (residues 261-1064 of EAV pp1a) with N-terminal HA tag, PLP2 mutant I353R (protein)
chain: GYNPPGDGACGYRCLAFMNGATVVSAGCSSDLWCDDELAYRVFQLSPTFTVTIPGGRVCPNAKYAMICDKQHWRVKRAKGVGLCLDESCFRGRCNCQRMSGPPPAPVSAAVLDHILEAATFGNVRVVTPEGQPRPVPAPRVRPSANSSGDVKDPAPVPPVPKPRTKLATPNPTQAPIPAPRTRLQGASTQEPLASAGVASDSAPKWRVAKTVYSSAERFRTELVQRARSVGDVLVQALPLKTPAVQRYTMTLKMMRSRFSWHCDVWYPLAVIACLLPIWPSLALLLSFAIGLIPSVGNNVVLTALLVSSANYVASMDHQCEGAACLALLEEEHYYRAVRWRPITGALSLVLNLLGQVGYVARSTFDAAYVPCTVFDLCSFAILYLCRNRCWRCFGRCVRVGPATHVLGSTGQRVSKLALIDLCDHFSKPTIDVVGMATGWSGCYTGTAAMERQCASTVDPHSFDQKKAGATVYLTPPVNSGSALQCLNVMWKRPIGSTVLGEQTGAVVTAVKSISFSPPCCVSTTLPTRPGVTVVDHALYNRLTASGVDPALLRVGQGDFLKLNPGFRLIGGWIYGICYFVLVVVSTFTCLPIKCGIGTRDPFCRRVFSVPVTKTQEHCHAGMCASAEGISLDSLGLTQLQSYWIAAVTSGLVILLVCHRLAISALDLLTLASPLVLLVFPWASVGLLLACSLAGAAVKIQLLATLFVNLFFPQATLVTMGYWACVAALAVYSLMGLRVKVNVPMCVTPAHFLLLARSAGQSREQMLRVSAAAPTNSLLGVARDCYVTGTTRLYIPKEGGMVFE
B2: EAV nsp2-3 polyprotein (residues 261-1064 of EAV pp1a) with N-terminal HA tag, PLP2 mutant T312A (protein)
chain: B1 chain with T52A, R93I
B3: EAV PLP2 domain (residues 261-392 of EAV pp1a) with C-terminal HIS6 purification tag, wild-type (protein)
chain: GYNPPGDGACGYRCLAFMNGATVVSAGCSSDLWCDDELAYRVFQLSPTFTVTIPGGRVCPNAKYAMICDKQHWRVKRAKGVGLCLDESCFRGICNCQRMSGPPPAPVSAAVLDHILEAATFGNVRVVTPEGQHHHHHH
B4: EAV PLP2 domain I353R mutant (Ile353Arg), recombinant enzyme (protein)
chain: B3 chain with I93R

How the values were obtained:
[1] = molecular target: FLAG-tagged ubiquitin, P0CG48
[2] = molecular target: ubiquitin-aminomethylcoumarin, P0CG48
[3] = molecular target: T1, RLRGG-AMC, C-terminal peptide motif of Ub and ISG15 coupled to aminomethylcoumarin
T1 chain: RLRGG

ubiquitin-aminomethylcoumarin, P0CG48, sequence (P0CG48 whole entry, looked up): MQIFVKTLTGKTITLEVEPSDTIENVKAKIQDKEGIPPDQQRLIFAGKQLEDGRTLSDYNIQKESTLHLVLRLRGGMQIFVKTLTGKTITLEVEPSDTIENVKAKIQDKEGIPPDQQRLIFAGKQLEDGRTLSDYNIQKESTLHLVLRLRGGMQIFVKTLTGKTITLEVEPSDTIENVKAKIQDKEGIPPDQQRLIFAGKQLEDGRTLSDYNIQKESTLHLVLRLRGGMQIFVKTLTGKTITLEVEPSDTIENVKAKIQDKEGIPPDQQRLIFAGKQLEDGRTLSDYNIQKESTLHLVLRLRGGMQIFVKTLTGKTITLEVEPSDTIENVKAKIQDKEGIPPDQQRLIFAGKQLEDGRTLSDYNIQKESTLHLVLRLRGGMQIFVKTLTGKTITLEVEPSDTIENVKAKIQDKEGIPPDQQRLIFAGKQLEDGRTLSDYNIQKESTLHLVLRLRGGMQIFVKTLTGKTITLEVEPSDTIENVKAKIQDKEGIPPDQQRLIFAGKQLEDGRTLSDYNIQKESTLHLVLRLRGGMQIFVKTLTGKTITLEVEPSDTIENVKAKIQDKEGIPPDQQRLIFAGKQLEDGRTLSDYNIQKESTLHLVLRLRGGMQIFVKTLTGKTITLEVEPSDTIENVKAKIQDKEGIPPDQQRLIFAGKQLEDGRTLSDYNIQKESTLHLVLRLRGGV
FLAG-tagged ubiquitin, P0CG48, sequence (P0CG48 whole entry, looked up): as above

Protein	density of the alpha-flag lane (amount of remaining ubiquitin conjugates) [1]	kcat/KM [2]	kcat/KM [3]	kcat/KM value for Ub-AMC against that of the wild-type [2]
B1	shows a density of the alpha-flag lane that is about twice as high as that of the T312A lane	–	–	–
B2	a mutant such as T312A already shows a level of DUB-activity that leads to a significantly denser alpha-flag lane, which represents the amount of remaining ubiquitin conjugates, than that of the wild-type virus	–	–	–
B3	–	21000 ± 2000 M⁻¹ s⁻¹	48 ± 8 M⁻¹ s⁻¹	–
B4	–	1100 ± 100 M⁻¹ s⁻¹	71 ± 8 M⁻¹ s⁻¹	the kcat/KM value for Ub-AMC of the mutant I353R is 20 times lower than that of the wild-type virus
